Test results published in patent US20210063414A1, “METHODS FOR PREVENTING AND/OR TREATING BONE LOSS CONDITIONS BY MODULATING IRISIN” (Dana-Farber Cancer Institute, Inc., priority 2018, published 2021).

Key:
[1] = target: T1, MLO-Y4 cell surface proteins (Mus musculus, UniProt P41216); test: Crosslinking/co-immunoprecipitation/mass spectrometry (TMT quantitative proteomics) to identify irisin receptors; format: binding; conditions: co-precipitated protein Acsl1 (ACSL1_MOUSE)
T1 construct: endogenous in cells; host or cells: MLO-Y4
T1 sequence (P41216 1-699): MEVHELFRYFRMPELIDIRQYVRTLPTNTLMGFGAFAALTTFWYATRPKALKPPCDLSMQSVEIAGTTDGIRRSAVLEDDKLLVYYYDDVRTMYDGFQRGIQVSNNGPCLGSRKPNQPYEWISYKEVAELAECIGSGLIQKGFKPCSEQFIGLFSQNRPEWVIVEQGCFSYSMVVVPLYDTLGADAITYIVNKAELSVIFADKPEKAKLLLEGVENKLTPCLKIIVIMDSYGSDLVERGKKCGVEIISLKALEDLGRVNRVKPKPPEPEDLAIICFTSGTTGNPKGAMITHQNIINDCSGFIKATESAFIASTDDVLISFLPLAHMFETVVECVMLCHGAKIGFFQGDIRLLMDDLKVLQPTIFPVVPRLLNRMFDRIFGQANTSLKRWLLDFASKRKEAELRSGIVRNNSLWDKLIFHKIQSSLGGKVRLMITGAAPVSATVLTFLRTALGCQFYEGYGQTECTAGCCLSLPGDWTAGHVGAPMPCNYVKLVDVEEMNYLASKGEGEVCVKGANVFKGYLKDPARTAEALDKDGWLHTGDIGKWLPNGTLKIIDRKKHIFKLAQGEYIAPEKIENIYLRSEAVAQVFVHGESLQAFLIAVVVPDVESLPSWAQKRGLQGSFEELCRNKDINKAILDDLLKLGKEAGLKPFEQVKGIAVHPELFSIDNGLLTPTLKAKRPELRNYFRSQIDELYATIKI
Procedure, shortened: (§1)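 Relative protein abundance came from 6-plex TMT MS3 quantitation on an Orbitrap Fusion Lumos, after in-gel trypsin digestion of Coomassie-stained SDS-PAGE lanes. Input was a Ni-NTA pulldown (250 mM imidazole elution) of lysates from murine MLO-Y4 cells. These cells were treated on ice with His-tagged irisin or adipsin (10 nM, 20 min) in serum-free medium, then crosslinked with 1.5 mM DTSSP for 30 min.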

[2] = target: T2, MLO-Y4 cell surface proteins (Mus musculus, UniProt Q08189); test: as above; format: binding; conditions: co-precipitated protein Tgm3 (TGM3_MOUSE)
T2 construct: endogenous in cells; host or cells: MLO-Y4
T2 sequence (Q08189 1-693): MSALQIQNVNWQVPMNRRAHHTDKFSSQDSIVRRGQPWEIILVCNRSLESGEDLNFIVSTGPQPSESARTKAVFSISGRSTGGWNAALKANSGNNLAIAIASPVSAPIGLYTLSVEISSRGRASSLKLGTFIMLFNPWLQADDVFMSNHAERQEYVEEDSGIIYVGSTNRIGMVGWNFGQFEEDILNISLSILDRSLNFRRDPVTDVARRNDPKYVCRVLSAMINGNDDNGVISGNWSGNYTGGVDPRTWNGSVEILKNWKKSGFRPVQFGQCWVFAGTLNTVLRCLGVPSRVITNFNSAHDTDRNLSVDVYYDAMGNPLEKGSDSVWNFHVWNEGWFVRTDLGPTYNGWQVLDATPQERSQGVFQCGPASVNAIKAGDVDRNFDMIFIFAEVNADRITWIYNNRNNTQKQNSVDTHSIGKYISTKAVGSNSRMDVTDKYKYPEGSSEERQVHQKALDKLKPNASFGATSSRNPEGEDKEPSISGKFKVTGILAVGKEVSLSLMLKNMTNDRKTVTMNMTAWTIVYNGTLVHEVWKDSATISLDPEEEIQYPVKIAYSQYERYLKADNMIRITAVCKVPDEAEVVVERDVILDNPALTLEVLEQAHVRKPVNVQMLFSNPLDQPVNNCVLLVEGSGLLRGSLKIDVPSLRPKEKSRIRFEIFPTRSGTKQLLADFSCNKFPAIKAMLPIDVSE
Procedure, shortened: as §1

TMT signal-to-noise ratio [1]: 361.33
TMT signal-to-noise ratio [2]: 274.388
Substance: adipsin
